We go through two molecules from patent US12060424 (AMUNIX PHARMACEUTICALS, dated 2024).

For assay [1], the target named is T1, human EpCAM expressed on cells (CHO cells stably transfected with human EpCAM); EpCAM-positive human tumor … (human, UniProt P16422 24-314).
T1 construct: whole, on cells; also called EpCAM-CHO; hEp-CHO 4-12B
T1 sequence (looked up): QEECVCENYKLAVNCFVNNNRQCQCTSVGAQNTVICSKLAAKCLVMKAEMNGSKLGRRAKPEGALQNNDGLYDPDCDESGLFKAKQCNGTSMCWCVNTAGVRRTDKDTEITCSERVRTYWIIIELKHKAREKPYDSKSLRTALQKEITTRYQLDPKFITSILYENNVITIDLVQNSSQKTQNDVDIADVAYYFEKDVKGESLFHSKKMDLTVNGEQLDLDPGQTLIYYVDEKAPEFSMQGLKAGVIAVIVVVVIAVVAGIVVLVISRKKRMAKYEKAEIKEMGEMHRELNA
The experiment in a line: competition flow cytometry on hEp-CHO 4-12B cells. In general terms: A flow cytometer gives signals particle by particle.

Assay [2] deals with T2, human CD3 on cells (CD3+ Jurkat cells; purified human CD3 positive T cells) (human, UniProt P07766 23-207).
T2 construct: whole, on cells; CD3 is a multi-subunit complex
T2 sequence (P07766 23-207): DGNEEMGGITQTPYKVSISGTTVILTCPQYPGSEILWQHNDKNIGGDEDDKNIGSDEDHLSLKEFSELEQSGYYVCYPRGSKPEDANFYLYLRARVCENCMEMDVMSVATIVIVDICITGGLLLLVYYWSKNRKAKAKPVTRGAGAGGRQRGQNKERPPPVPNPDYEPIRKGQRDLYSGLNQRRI
Briefly: competition flow cytometry on Jurkat cells.

B1: AC1886 anti-EpCAM×anti-CD3 ProTIA with two XTEN (XTEN292-RSR3058-anti-EpCAM-anti-CD3 tandem scFv-RSR3058-XTEN_867-6xHIS) (bispecific antibody)
chain: SPAGSPTSTEEGTSESATPESGPGTSTEPSEGSAPGTSESATPESGPGSEPATSGSETPGTSESATPESGPGSEPATSGSETPGTSESATPESGPGTSTEPSEGSAPGSPAGSPTSTEEGTSESATPESGPGSEPATSGSETPGTSESATPESGPGSPAGSPTSTEEGSPAGSPTSTEEGTSTEPSEGSAPGTSESATPESGPGTSESATPESGPGTSESATPESGPGSEPATSGSETPGSEPATSGSETPGSPAGSPTSTEEGTSTEPSEGSAPGTSTEPSEGSAPGGSAPTTGEAGEAAGATSAGATGPATSGSETPGTDIQMTQSPSSLSASVGDRVTITCRSTKSLLHSNGITYLYWYQQKPGKAPKLLIYQMSNLASGVPSRFSSSGSGTDFTLTISSLQPEDFATYYCAQNLEIPRTFGQGTKVEIKGATPPETGAETESPGETTGGSAESEPPGEGQVQLVQSGPGLVQPGGSVRISCAASGYTFTNYGMNWVKQAPGKGLEWMGWINTYTGESTYADSFKGRFTFSLDTSASAAYLQINSLRAEDTAVYYCARFAIKGDYWGQGTLLTVSSGGGGSDIQMTQSPSSLSASVGDRVTITCRASQDIRNYLNWYQQKPGKAPKLLIYYTSRLESGVPSRFSGSGSGTDYTLTISSLQPEDFATYYCQQGNTLPWTFGQGTKVEIKGATPPETGAETESPGETTGGSAESEPPGEGEVQLVESGGGLVQPGGSLRLSCAASGYSFTGYTMNWVRQAPGKGLEWVALINPYKGVSTYNQKFKDRFTISVDKSKNTAYLQMNSLRAEDTAVYYCARSGYYGDSDWYFDVWGQGTLVTVSSGTAEAASASGTTGEAGEAAGATSAGATGPSPGSPAGSPTSTEEGTSESATPESGPGTSTEPSEGSAPGSPAGSPTSTEEGTSTEPSEGSAPGTSTEPSEGSAPGTSESATPESGPGSEPATSGSETPGSEPATSGSETPGSPAGSPTSTEEGTSESATPESGPGTSTEPSEGSAPGTSTEPSEGSAPGSPAGSPTSTEEGTSTEPSEGSAPGTSTEPSEGSAPGTSESATPESGPGTSTEPSEGSAPGTSESATPESGPGSEPATSGSETPGTSTEPSEGSAPGTSTEPSEGSAPGTSESATPESGPGTSESATPESGPGSPAGSPTSTEEGTSESATPESGPGSEPATSGSETPGTSESATPESGPGTSTEPSEGSAPGTSTEPSEGSAPGTSTEPSEGSAPGTSTEPSEGSAPGTSTEPSEGSAPGTSTEPSEGSAPGSPAGSPTSTEEGTSTEPSEGSAPGTSESATPESGPGSEPATSGSETPGTSESATPESGPGSEPATSGSETPGTSESATPESGPGTSTEPSEGSAPGTSESATPESGPGSPAGSPTSTEEGSPAGSPTSTEEGSPAGSPTSTEEGTSESATPESGPGTSTEPSEGSAPGTSESATPESGPGSEPATSGSETPGTSESATPESGPGSEPATSGSETPGTSESATPESGPGTSTEPSEGSAPGSPAGSPTSTEEGTSESATPESGPGSEPATSGSETPGTSESATPESGPGSPAGSPTSTEEGSPAGSPTSTEEGTSTEPSEGSAPGTSESATPESGPGTSESATPESGPGTSESATPESGPGSEPATSGSETPGSEPATSGSETPGSPAGSPTSTEEGTSTEPSEGSAPGTSTEPSEGSAPGSEPATSGSETPGTSESATPESGPGTSTEPSEGSAPGHHHHHH
notes: Uncleavable release segments RSR-3058; anti-EpCAM 4D5MOCB; hCD3.3
For the molecule B1, the figures for the “fold weaker binding affinity than cleaved AC1695” value in assay [1] and in assay [2] were around 100 fold and around 30 fold, respectively.

B2: AC1952 anti-human EpCAM×anti-human CD3 ProTIA with two XTEN, RSR-2295, uncleaved (bispecific antibody)
chain: SPAGSPTSTEEGTSESATPESGPGTSTEPSEGSAPGTSESATPESGPGSEPATSGSETPGTSESATPESGPGSEPATSGSETPGTSESATPESGPGTSTEPSEGSAPGSPAGSPTSTEEGTSESATPESGPGSEPATSGSETPGTSESATPESGPGSPAGSPTSTEEGSPAGSPTSTEEGTSTEPSEGSAPGTSESATPESGPGTSESATPESGPGTSESATPESGPGSEPATSGSETPGSEPATSGSETPGSPAGSPTSTEEGTSTEPSEGSAPGTSTEPSEGSAPGGSAPEAGRSANHTPAGLTGPATSGSETPGTDIQMTQSPSSLSASVGDRVTITCRSTKSLLHSNGITYLYWYQQKPGKAPKLLIYQMSNLASGVPSRFSSSGSGTDFTLTISSLQPEDFATYYCAQNLEIPRTFGQGTKVEIKGATPPETGAETESPGETTGGSAESEPPGEGQVQLVQSGPGLVQPGGSVRISCAASGYTFTNYGMNWVKQAPGKGLEWMGWINTYTGESTYADSFKGRFTFSLDTSASAAYLQINSLRAEDTAVYYCARFAIKGDYWGQGTLLTVSSGGGGSELVVTQEPSLTVSPGGTVTLTCRSSTGAVTTSNYANWVQQKPGQAPRGLIGGTNKRAPGTPARFSGSLLGGKAALTLSGVQPEDEAEYYCALWYSNLWVFGGGTKLTVLGATPPETGAETESPGETTGGSAESEPPGEGEVQLLESGGGLVQPGGSLKLSCAASGFTFNTYAMNWVRQAPGKGLEWVARIRSKYNNYATYYADSVKDRFTISRDDSKNTAYLQMNNLKTEDTAVYYCVRHGNFGNSYVSWFAYWGQGTLVTVSSGTAEAASASGEAGRSANHTPAGLTGPPGSPAGSPTSTEEGTSESATPESGPGTSTEPSEGSAPGSPAGSPTSTEEGTSTEPSEGSAPGTSTEPSEGSAPGTSESATPESGPGSEPATSGSETPGSEPATSGSETPGSPAGSPTSTEEGTSESATPESGPGTSTEPSEGSAPGTSTEPSEGSAPGSPAGSPTSTEEGTSTEPSEGSAPGTSTEPSEGSAPGTSESATPESGPGTSTEPSEGSAPGTSESATPESGPGSEPATSGSETPGTSTEPSEGSAPGTSTEPSEGSAPGTSESATPESGPGTSESATPESGPGSPAGSPTSTEEGTSESATPESGPGSEPATSGSETPGTSESATPESGPGTSTEPSEGSAPGTSTEPSEGSAPGTSTEPSEGSAPGTSTEPSEGSAPGTSTEPSEGSAPGTSTEPSEGSAPGSPAGSPTSTEEGTSTEPSEGSAPGTSESATPESGPGSEPATSGSETPGTSESATPESGPGSEPATSGSETPGTSESATPESGPGTSTEPSEGSAPGTSESATPESGPGSPAGSPTSTEEGSPAGSPTSTEEGSPAGSPTSTEEGTSESATPESGPGTSTEPSEGSAPGTSESATPESGPGSEPATSGSETPGTSESATPESGPGSEPATSGSETPGTSESATPESGPGTSTEPSEGSAPGSPAGSPTSTEEGTSESATPESGPGSEPATSGSETPGTSESATPESGPGSPAGSPTSTEEGSPAGSPTSTEEGTSTEPSEGSAPGTSESATPESGPGTSESATPESGPGTSESATPESGPGSEPATSGSETPGSEPATSGSETPGSPAGSPTSTEEGTSTEPSEGSAPGTSTEPSEGSAPGSEPATSGSETPGTSESATPESGPGTSTEPSEGSAPGHHHHHH
notes: XTEN-RSR2295-anti-EpCAM scFv-anti-CD3 (hCD3.9) scFv-RSR2295-XTEN-His6
In the case of B2, in assay [1], the “fold weaker binding affinity than cleaved AC1968” value was around 100 fold.
